Test results taken from patent publication US20130084291A1.

Experiments:
[1] = molecular target: TNF-alpha; test: Biacore 3000 SPR; Fc fusion loaded into the flow cell, exposed to TNF
[2] = molecular target: TNF-alpha; test: cell-based or functional assay

D47N S202N TNFR2-h(1)Fc (Fc fusion) showed a KD (TNF-alpha), normalized to TNFR-h(1)Fc wt (fold of wt (normalized)) [1] of 4.4 and an IC50 (WEHI Assay), normalized to TNFR-h(1)Fc wt (fold of wt (normalized)) [2] of 1.1.

In the case of D47N TNFR2-h(1)Fc (Fc fusion), the KD (TNF-alpha), normalized to TNFR-h(1)Fc wt (fold of wt (normalized)) [1] is reported as 1.6 and the IC50 (WEHI Assay), normalized to TNFR-h(1)Fc wt (fold of wt (normalized)) [2] is reported as 1.9.

D47N/E155N TNFR2-h(1)Fc (Fc fusion) gave a KD (TNF-alpha), normalized to TNFR-h(1)Fc wt (fold of wt (normalized)) [1] of 2.6 and an IC50 (WEHI Assay), normalized to TNFR-h(1)Fc wt (fold of wt (normalized)) [2] of 1.6.

D47N/G253N TNFR2-h(1)Fc (Fc fusion) was tested, and the KD (TNF-alpha), normalized to TNFR-h(1)Fc wt (fold of wt (normalized)) [1] was 55 and the IC50 (WEHI Assay), normalized to TNFR-h(1)Fc wt (fold of wt (normalized)) [2] was 3.

E155N G253N TNFR2-h(1)Fc (Fc fusion) gave a KD (TNF-alpha), normalized to TNFR-h(1)Fc wt (fold of wt (normalized)) [1] of 3.6 and an IC50 (WEHI Assay), normalized to TNFR-h(1)Fc wt (fold of wt (normalized)) [2] of 0.57.

Work on “E155N S202N G253N TNFR2-h(1)Fc (Fc fusion)” yielded a KD (TNF-alpha), normalized to TNFR-h(1)Fc wt (fold of wt (normalized)) [1] of 1 and an IC50 (WEHI Assay), normalized to TNFR-h(1)Fc wt (fold of wt (normalized)) [2] of 0.25.

For S202N G253N TNFR2-h(1)Fc (Fc fusion), the KD (TNF-alpha), normalized to TNFR-h(1)Fc wt (fold of wt (normalized)) [1] was 1.05 and the IC50 (WEHI Assay), normalized to TNFR-h(1)Fc wt (fold of wt (normalized)) [2] was 0.23.

With T203N P205S TNFR2-h(1)Fc (Fc fusion) the KD (TNF-alpha), normalized to TNFR-h(1)Fc wt (fold of wt (normalized)) [1] was 0.33 and the IC50 (WEHI Assay), normalized to TNFR-h(1)Fc wt (fold of wt (normalized)) [2] was 0.29.

In the case of T222N TNFR2-h(1)Fc (Fc fusion), the KD (TNF-alpha), normalized to TNFR-h(1)Fc wt (fold of wt (normalized)) [1] is reported as 0.78 and the IC50 (WEHI Assay), normalized to TNFR-h(1)Fc wt (fold of wt (normalized)) [2] is reported as 0.25.
